From patent publication US20220119506A1 (NOVOBIND LIVESTOCK THERAPEUTICS, published 2022)

T1: PirB (Vibrio parahaemolyticus)
T1 construct: also called JHE-like toxin PirB-like
T1 chain: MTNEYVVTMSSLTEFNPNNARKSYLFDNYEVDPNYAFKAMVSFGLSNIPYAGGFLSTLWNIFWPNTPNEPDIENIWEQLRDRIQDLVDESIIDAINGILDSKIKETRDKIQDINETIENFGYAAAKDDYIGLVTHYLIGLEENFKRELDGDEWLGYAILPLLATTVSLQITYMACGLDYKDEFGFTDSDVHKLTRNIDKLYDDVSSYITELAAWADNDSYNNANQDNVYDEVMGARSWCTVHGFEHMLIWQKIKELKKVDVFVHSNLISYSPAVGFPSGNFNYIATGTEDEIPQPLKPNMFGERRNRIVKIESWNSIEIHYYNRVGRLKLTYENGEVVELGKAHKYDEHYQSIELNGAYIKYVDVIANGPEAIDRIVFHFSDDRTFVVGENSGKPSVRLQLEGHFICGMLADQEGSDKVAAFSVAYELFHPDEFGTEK


Biological target: T1, PirB
Experiment: phage ELISA, antigen-coated wells

Binder	binding above PBS-coated wells [%]
NBX0850 (VHH, on phage in the phage ELISA) VHH: QVQLQESGGGLVQAGGSLRLSCAASGSISASYVMGWYRQTPGKQRELVATTTSGGTTRYADSVRGRFTISRDNARNTVYLQMNSLKPDDTAVYYCNARRLFLNYWGQGTQVTVSS	≥ 50
NBX0851 (VHH, on phage in the phage ELISA) VHH: QVQLQQSGGGLVQPGGSLRLSCAASGRMFSGYVMGWYRQAPGKQRELVATITNGGLTNYADSVKGRFTISRDNAKNTVYLQMNSLKPDDTAVYYCNARRLWDIYWGQGTQVTVSS	≥ 50
NBX0852 (VHH, on phage in the phage ELISA) VHH: QVQLQESGGGLVQAGGSLRLSCEASGRTFSSYRVGWFRQAPGKGREFVAAISATGGTTYYGDSVKGRFTISRDNAENTVSLQMNSLEPEDTAVYYCAATKGIVNYRVAGTYDAWGQGTQVTVSS	≥ 50
NBX0827 (VHH, on phage in the phage ELISA) VHH: QVQLQESGGGLVQAGGSLRLSCAASGSISSSFVMGWYRQAPGKQRELVATITSGGSTIYADSVKGRFTVSRDNAKNTVYLQMNSLKSEDTAVYYCHARRLWNTYWGQGTQVTVSS	≥ 50
NBX0831 (VHH, on phage in the phage ELISA) VHH: QVQLQESGGGLVQAGGSLRLSCSASGDAFSRYVMGWYRQAPGKQRELVATITSGGSTIYADSVKGRFTVSRDNAKNTVYLQMNSLKSEDTAVYYCHARRLWNTYWGQGTQVTVSS	≥ 50
NBX0854 (VHH, on phage in the phage ELISA) VHH: QVQLQQSGGGLVQAGGSLRISCAASGSISSAYVMGWYRQAPGTQRELVATITSGGTTNYADSVKGRFTVSRDNAKNTVYLQMNSLKPDDTAVYYCNARRLWTTYWGQGTQVTVSS	≥ 50
NBX0855 (VHH, on phage in the phage ELISA) VHH: QVQLQESGGGLVQPGESLRLSCAASTSGFSSYVMAWYRQAPGKQRELVASMTTGGLTNYADSVKGRFTISRDNAKNTVYLQMNSLKPEDTAAYYCNARRLWNAYWGQGTQVTVSS	≥ 50
NBX0857 (VHH, on phage in the phage ELISA) VHH: QVQLQQSGGGLVQPGGSLRLSCAASGRIFSGHVMGWYRQAPGKQRELVATITNGGLTNYGDSVKGRFTISRDNAKNTVYLQMNSLKPDDTAVYYCNARRLWDTYWGQGTQVTVSS	≥ 50
NBX0858 (VHH, on phage in the phage ELISA) VHH: QVQLQESGGGLVQAGGSLRLSCAASRRDFTTTTMAWYRQAPGKKRETVATVNTGGLTWYADFVKGRFTISRDDAVNTLLLQMDSLKPEDTAVYYCNAVLVRARGMWGQGTQVTVSS	≥ 50
NBX0862 (VHH, on phage in the phage ELISA) VHH: QVQLQESGGGLVQPGGSLRLSCSASGNRFSSSYVLGWYRQAPGKQRELVATVTSGGLTHYGDSVKGRFTISRDNAKNTVYLQMNSLKPEDTAVYYCNARILLTNYWGQGTQVTVSS	≥ 50
NBX0835 (VHH, on phage in the phage ELISA) VHH: QVQLQESGGGLVQPGGSLRLSCSASGNRFSSSYVMGWYRQAPGKQRELVATVTSGGLTHFKDSVKGRFTISRDNAKNTVYLQMNSLKPEDTAVYYCNARILLTNYWGQGTQVTISS	≥ 50
NBX0843 (VHH, on phage in the phage ELISA) VHH: QVQLQESGGGLVQPGGSLRLSCSASGNRFSSSYVMGYYRQAPGKQRELVATVTTGGLTNYADSVKGRFTISRDNAKNTVYLQMNSLKPEDTAVYYCNARILLTNYWGQGTQVTVSS	≥ 50
NBX0859 (VHH, on phage in the phage ELISA) VHH: QVQLQESGGGLVQPGGSLRLSCSASGNRFSSSYVMGWYRQGPGKQRELVATVTSGGMTHYGDSVKGRFTISRDNAKNTVYLHMNSLKPEDTGVYYCFARRLWDIHWGQGTQVTVSS	≥ 50
NBX0861 (VHH, on phage in the phage ELISA) VHH: QVQLQESGGGLVQAGGSLRLSCVASGSISNSHVMGWYRQAPGKERELVATLTSGGLTHFGDSVKGRFTISRDNAKNTIYLQMNSLKVEDTAVYYCNARRLLTSMWGQGTQVTVSP	≥ 50
NBX0863 (VHH, on phage in the phage ELISA) VHH: QVQLQQSGGGLAQAGGSLRLSCAASGRTFNWYTMAWFRQAPGKEREFVAAIRLGSTVYGDSVKARFTISRDNAKSTVSLQMNSLKPEDTALYYCAVGITGDGTIQGGPYQYWGQGTQVTVSS	≥ 50
NBX0864 (VHH, on phage in the phage ELISA) VHH: QVQLQESGGGLVQPGGSLRLSCAASGIISSAYVMGWYRQAPGKQRELVATITSGGTTRYADSVKGRITISRDNAKNTVLLQMNSLKPEDTAVYYCNARILLTNYWGQGTQVTVSS	≥ 50

Binder	binding above PBS-coated wells [%]
NBX0865 (VHH, on phage in the phage ELISA) VHH: QVQLQESGGGLVQAGGSLRLSCADSGRVFSTYVMGWYRQVPGKQRELVATITPGGLINYGDAVKGRFTISRDNAKNTVYLQMNSLKPADTAVYYCNARRLFAINWGGGTQVTVSS	≥ 50
NBX09001 (VHH, on phage in the phage ELISA) VHH: QVQLQESGGGSVQPGGSLRLSCAASGSALSSNVLGWYRQAPGKQRELVATISSGGLTNYADSVKGRFTISRDNAKNTVYLQMNSLKPEDTAVYYCQSRRLFTVYWGQGTQVTVSS	≥ 50
NBX09002 (VHH, on phage in the phage ELISA) VHH: QVQLQESGGGLVQAGESLRLSCADSGRTSSTYDMAWFRQAPGKEREFVAAISRDGGRLSYADSVKGRFTISRDNAKNTLSLQMNSLRPEDTAVYYCAAFSIRGGLRPSYKYWGQGTQVTVSS	≥ 50
NBX09003 (VHH, on phage in the phage ELISA) VHH: QVQLQESGGGLVQPGGSLRLSCTASGSIFSLLNMGWYRQAPGKQRELVASITSRSYTNYADSVKGRFTISRDNTKNMVYLQMNSLKPEDTAVYYCNLNPADWGRLRNWGQGTQVTVSS	≥ 50
NBX09005 (VHH, on phage in the phage ELISA) VHH: QVQLQESGGGLVQAGGSLRLSCAASGLTFGSYAMGWFRQAPGKEREFVAAIMRYSSRTYYTDSVKGRFTISRDNAKNTVNLQMNNLEPEDTAIYYCAAAKRLSIVTLPRQYEFWGQGTQVTVSS	≥ 50
NBX09009 (VHH, on phage in the phage ELISA) VHH: QVQLQESGGGLVQAGGSLRLSCAASGLTFGSYAMGWFRQAPGKEREFVATIMRYSSRTYYTDSVKGRFTISRDNAKNTVNLQMNNLEPEDAAIYYCAAAKRLSIVALPRQYEFWGQGTQVTVSS	≥ 50
NBX09010 (VHH, on phage in the phage ELISA) VHH: QVQLQQSGGGLVQAGGSLRLSCAASGLTFGSYAMGWFRQAPGKEREFVAAIMRYSSRTYYTDSVKGRFTISRDNAKNTVNLQMNNLEPEDTAIYYCAAAKRLSRVTLPREYEFWGQGTQVTVSS	≥ 50
NBX09006 (VHH, on phage in the phage ELISA) VHH: QVQLQESGGGLVQPGGSLRLSCAASGSISGSYVMGWYRQAPGKQRELVATITSGGLTRYADSVKGRWTISRDNAKNTVYLQMNNLKLEDTAVYYCSARRIATTYWGQGTQVTVSS	≥ 50
NBX09007 (VHH, on phage in the phage ELISA) VHH: QVQLQESGGGLVQPGGSLRLSCAASGSISSSYVMGWYRQAPGKQRDLVATITNAGNIHYGDSVKGRFTISRDNAKNTVSLQMNSLKPEDTAVYYCNARALWRAYWGQGTQVTVSS	≥ 50
NBX09008 (VHH, on phage in the phage ELISA) VHH: QVQLQESGGGLVQAGGSLRLSCSASGRTFSVRAMGWFRQAPGKERESVAAIHQNTRTTLYADSVKGRFAISRDGTKNTVYLQMNSLKPEDTAVYYCAASDDYGLQIKEVAYKYWGQGTQVTVAS	≥ 50
NBX09011 (VHH, on phage in the phage ELISA) VHH: QVQLQESGGGLVQPGESLRLSCAASTSGFSSYVMAWYRQAPGKQRELVASMTTGGLTNYADSVKGRFTISRDNAKNTVYLQMNSLKPEDTAAYYCNARRLWNAYWGQGTQVTVSS	≥ 50
NBX0614 (VHH, on phage in the phage ELISA) VHH: QVQLQQSGGGLVQAGGSLRLSCAASGSSFRSNAIGWYRQFPGKSRELIAVITRSGSTQYADSVKGRFTASRDNAKNMIYLQMNNLKLEDTAVYYCHDETMKLISVKNDYWGQGSQVTVSS	≥ 50
NBX0627 (VHH, on phage in the phage ELISA) VHH: QVQLQQSGGGLVQAGGSLRLSCAASGSSFRSNAIGWYRQSPGKSRELIAVITRSGSTQYADSVKGRFTASRDNAKNMIYLQMNSLKPEDTAVYYCHDETMKLITGKNDYWGQGTQVTVSS	≥ 50
NBX0626 (VHH, on phage in the phage ELISA) VHH: QVQLQQSGGGLVQAGGSLRLACAVSETTLATNAMAWYRQAQGKRREWVATISSVSSGGITNYSGSVKGRFTISRDNAKNTVFLQMNSLQPEDTAVYYCNGVRRGRSYWGQGTQVTVSS	≥ 50
NBX0404 (VHH, on phage in the phage ELISA) VHH: QVQLQESGGGLVQAGDSLRLSCATSGRTFSRYTMGWFRQTPGKEREFVAAISWSGTYYTDSVKGRFTISVDNAKNTVYLQMNSLKPEDTAVYYCASGSRRLYYSSDIDYWGQGTQVTVSS	≥ 50
